Substitutions are numbered along the chain they refer to. In names and notes the source's numbering stands.
B1: HuJ3 E44R (VHH)
VHH: EVQLVESGGGLVQPGGSLRLSCAASGSIFNQYAMAWFRQAPGKRREFVAGMGAVPHYGEFVKGRFTISRDNSKNTVYLQMNSLRAEDTAVYYCARSKSTYISYNSNGYDYWGQGTLVTVS
B2: HuJ3 S102R (VHH)
VHH: B1 VHH with R44E, S102R
B3: HuJ3 V54E (VHH)
VHH: B1 VHH with R44E, V54E

Target: HIV-1 Bal gp140 (Human immunodeficiency virus 1, isolate …, UniProt Q2MKA8, strain)
Test: ELISA

| Binder | EC50 |
| --- | --- |
| B1 | 1.7 nM |
| B2 | 10.4 nM |
| B3 | 2.31 nM |

— publication PMC11405125 (Briefings in Bioinformatics, 2024)
